From PMC5586147 come the findings set out here.

In assay [1] the target is pro-TGF-β1 prodomain expressed in absence of the growth factor (latency-associated peptide, LAP). Description: SPR. For orientation: In SPR one partner is held on a chip, and binding of the other changes the refractive index at the surface.
Assay [2] deals with human pro-TGF-β1 (C4S, R249A furin-site mutant, N107Q, N147Q), purified (human). Description: negative-stain electron microscopy.

Usually Kd stands for the constant that tells how readily two partners part at equilibrium. The low end stands for higher affinity, the high end for lower affinity.

“And” between values parts separate entries of the source, which are not always exact repeats. Equal entries are not always repeated.

Regarding “soluble integrin αVβ6 headpiece (from UniProt P06756 31-625; P18564 22-491) (complex)”, in assay [1], the dissociation constant Kd came out at 7.6 nM. In addition, the stoichiometry N (αVβ6 headpieces per pro-TGF-β1 dimer) in assay [2] was 2 and 1.
